Reference: PMC5548745, “Agonist-induced dimer dissociation as a macromolecular step in G protein-coupled receptor signaling” (Nature Communications, 2017)

Legend:
[1] = system: SNAP-β2-adrenergic receptor; assay: SNAP-β2-AR internalization by confocal microscopy; format: cell-based; details: HEK293; isoproterenol 10 µM, 15 min
Experimental: SNAP-FZD6 and SNAP-β2-AR were imaged in living cells using a Zeiss LSM710 equipped with a 40×, 1.2 NA C-Apochromat objective. The cell-impermeable SNAP substrate SNAP-Surface 549 (New England Biolabs) was added (1:1000, 15 min), washed twice in BE buffer and imaged using the 561 nm laser line. SNAP-FZD6 and SNAP-β2-AR were stimulated with 300 ng ml^−1 WNT-5A and 10 µM isoproterenol, respectively, and fluorescence was monitored over time.

[2] = system: subcellular localization in HEK293 cells; assay: co-localization of FZD6-R511C with FZD6 constructs; format: cell-based, human; details: FZD6-R511C with FZD6-mCherry, or FZD6 dimer mutant with FZD6-R511C
DVL2-GFP = assay: dcFRAP with chemical surface crosslinking, FZD6 dimer mutant/DVL2-GFP; format: cell-based; details: inactive state
Experimental: For dual color FRAP experiments, cells grown in four compartment 35 mm glass bottom dishes were washed three times with BE buffer[19] (150 mM NaCl, 2.5 mM KCl, 10 mM HEPES, 12 mM glucose, 0.5 mM CaCl2, and 0.5 mM MgCl2). Then, the cells were incubated at RT for 30 min with biotin-conjugated goat polyclonal anti-V5 antibody (Bethyl) diluted 1:100 in BE buffer supplemented with 2.5% bovine serum albumin. For antibody-mediated cross-linking, avidin was added and incubated for 15 min and washed two times with BE buffer before the experiments were performed. […] Fluorescence was measured pre- and post-bleach using low-intensity illumination for a total time period of 100 s. Average pixel intensity was measured using the ZEN2013 software, corrected for background fluctuations and bleaching artifacts and normalized to pre-bleached intensity. The recovered mobile fraction (F m) was calculated as follows: F m = (I P–I 0)/(I I–I 0), where I I is the initial intensity measured prior to bleaching, I 0 is the immediate fluorescence intensity post-bleaching and I P is intensity value post-bleaching. The mobile fraction was defined by the average of the fluorescence recovery assessed between time 85–101 s (including pre-bleach measurements). […]

FZD6–FZD6 dimer = assay: dcFRAP of V5-FZD6-mCherry/FZD6-GFP (FZD6 dimerization); format: cell-based, human; details: HEK293; GFP-tagged mutant with wt V5-FZD6-mCherry; anti-V5/avidin crosslinking
In short: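 Live cells co-expressing V5-FZD6-mCherry and FZD6-GFP, surface V5 tag crosslinked with biotin-anti-V5 plus avidin in BE buffer at RT. Membrane areas photobleached, recovery imaged (488/561 nm) over 100 s; mobile fraction from background/bleach-corrected, pre-bleach-normalized intensity at 85-101 s. Cells with <40% crosslink-induced mobility reduction excluded.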

[3] = system: ERK1/2 phosphorylation in HEK293 cells; assay: P-ERK1/2 immunoblot, HEK293 cells expressing SNAP-FZD6 constructs; format: cell-based
Experimental: Fig. 6 Relationship between FZD6 dimerization and phosphorylation of ERK1/2. a Mouse lung epithelial (MLE-12) cells were stimulated with WNT-5A (300 ng ml^−1) for 0, 2.5, 5, 10, 20 min. Cell lysates were analyzed for P-ERK1/2 and β-actin by immunoblotting. Additional information in Supplementary Fig. 6. b Bar graph summarizes three independent experiments. Densitometry data were normalized to the unstimulated control. […] Additional information in Supplementary Fig. 6. SNAP-FZD6 wt- and SNAP-FZD6 dimer mutant-induced ERK1/2 phosphorylation in the absence e and presence f of the porcupine inhibitor C59 (5 µM, overnight) were probed by immunoblotting for the SNAP-tag, P-ERK1/2, total ERK1/2 and β-actin. g The bar graph summarizes densitometry data of P-ERK1/2 normalized to total ERK1/2 from 6 different experiments. P = 0.0005; F (2, 15) = 13.08. ***P < 0.001. Empty vector transfection was used as mock. h Increasing amounts of plasmid of either SNAP-FZD6 wt or SNAP-FZD6 dimer mutant in the presence of C59 show a dose-dependent increase in P-ERK1/2 only with the dimer mutant. Data from three independent experiments for the dimer mutant were fit to a linear least-squares model (slope = 0.40 ± 0.10; R ^2 = 0.5943) and this line is shown superimposed. […] This dissociation-dependent activation can be evoked by agonist (WNT^high) or mutation of the dimer interface (symbolized by red stars). WNT^low conditions can be achieved in the presence of C59, which reduces FZD6 wt signaling
MLE-12 or HEK293 cells (ATCC) were plated in a 24- or 48-well plate at a density of 100,000 or 50,000 cells/well, respectively. After 24 h, cells were transfected using Lipofectamine 2000 according to the manufacturer’s instructions. Cells were stimulated (24 h post-transfection) with 300 ng ml^−1 recombinant carrier-free WNT-5A (CF WNT-5A; R&D Systems). Stimulation was stopped by the addition of lysis buffer (1% NP-40, 150 mM NaCl, 50 mM Tris/HCl pH 8). Lysates were sonicated and analyzed by 7.5 or 10% Mini-PROTEAN TGX precast polyacrylamide gels (Bio-Rad) and transferred to PVDF membranes using the Trans-Blot Turbo system (Bio-Rad). After blocking with 5% milk or BSA in TBS-T, membranes were incubated with primary antibodies in blocking buffer: mouse anti-β-actin (1:30,000; Sigma #A5441), rabbit anti-FZD6 (1:1000; NovusBio #NBP1-00830), rabbit anti-Phospho-p44/42 MAPK (ERK1/2) (Thr202/Tyr204) (1:1000; Cell Signaling Technology #9101 L), rabbit anti-p44/42 MAPK (ERK1/2) (1:1000; Cell Signaling Technology #9102), rabbit anti-Phospho-C-RAF (Ser338) (1:1000; Cell Signaling Technology #56A6), rabbit anti-SNAP tag (1:1000, New England Biolabs #P9310S), and rabbit anti-HA (1:4000, abcam #ab9110) overnight at 4 °C. Proteins were detected with horseradish peroxidase-conjugated secondary antibodies (goat anti-rabbit and goat anti-mouse (Pierce)) and Clarity Western ECL Blotting Substrate (Bio-Rad). All uncropped immunoblots can be found in the Supplementary Information.

Gαi1-GFP = details: cited from earlier work

Row | Molecule | internalization of SNAP-β2-adrenergic receptor [1] | subcellular localization on co-expression [2] | assembly with DVL (DVL2-GFP) | dimerization by CL-induced decrease of mobile fraction (FZD6–FZD6 dimer) | P-ERK1/2 induction in presence of C59 ([3]; HEK293, C59 5 µM overnight) | slope of P-ERK1/2 vs plasmid amount ([3]; HEK293, C59, linear least-squares, R^2 = 0.5943, three independent experiments) | effect of overexpression on basal P-ERK1/2 without C59 ([3]; serum-starved HEK293, no C59) | assembly with Gαi1/Gαq proteins (Gαi1-GFP)
1 | CC(C)NCC(O)c1ccc(O)c(O)c1 (stereo not drawn) [isoproterenol] | appearance of numerous endosome-like structures after 15 min |  |  |  |  |  |  | 
2 | FZD6 dimer mutant: D365A, R368A, Y369A triple mutant of FZD6 (protein, left off: GFP, C-terminal, kept) HSLFTCEPITVPRCMKMAYNMTFFPNLMGHYDQSIAAVEMEHFLPLANLECSPNIETFLCKAFVPTCIEQIHVVPPCRKLCEKVYSDCKKLIDTFGIRWPEELECDRLQYCDETVPVTFDPHTEFLGPQKKTEQVQRDIGFWCPRHLKTSGGQGYKFLGIDQCAPPCPNMYFKSDELEFAKSFIGTVSIFCLCATLFTFLTFLIDVRRFRYPERPIIYYSVCYSIVSLMYFIGFLLGDSTACNKADEKLELGDTVVLGSQNKACTVLFMLLYFFTMAGTVWWVILTITWFLAAGRKWSCEAIEQKAVWFHAVAWGTPGFLTVMLLAMNKVEGDNISGVCFVGLYDLAASAAFVLLPLCLCVFVGLSLLLAGIISLNHVRQVIQHDGRNQEKLKKFMIRIGVFSGLYLVPLVTLLGCYVYEQVNRITWEITWVSDHCRQYHIPCPYQAKAKARPELALFMIKYLMTLIVGISAVFWVGSKKTCTEWAGFFKRNRKRDPISESRRVLQESCEFFLKHNSKVKHKKKHYKPSSHKLKVISKSMGTSTGATANHGTSAVAITSHDYLGQETLTEIQTSPETSMREVKADGASTPRLREQDCGEPASPAASISRLSGEQVDGKGQAGSVSESARSEGRISPKSDITDTGLAQSNNLQVPSSSEPSSLKGSTSLLVHPVSGVRKEQGGGCHSDT |  | maintained cell surface localization | retained the ability to interact with the scaffold protein DVL | did not result in a decrease of the mobile fraction of FZD6-GFP | maintained its ability to induce ERK1/2 phosphorylation | 0.40 ± 0.10 | increased basal P-ERK1/2 | 
3 | FZD6-R511C: DVL-biased FZD6 nail dysplasia mutant (protein, UniProt O60353 19-706, looked up, variant R511C, GFP or mCherry tag, DVL-biased FZD6 nail dysplasia mutant) Frizzled-6: HSLFTCEPITVPRCMKMAYNMTFFPNLMGHYDQSIAAVEMEHFLPLANLECSPNIETFLCKAFVPTCIEQIHVVPPCRKLCEKVYSDCKKLIDTFGIRWPEELECDRLQYCDETVPVTFDPHTEFLGPQKKTEQVQRDIGFWCPRHLKTSGGQGYKFLGIDQCAPPCPNMYFKSDELEFAKSFIGTVSIFCLCATLFTFLTFLIDVRRFRYPERPIIYYSVCYSIVSLMYFIGFLLGDSTACNKADEKLELGDTVVLGSQNKACTVLFMLLYFFTMAGTVWWVILTITWFLAAGRKWSCEAIEQKAVWFHAVAWGTPGFLTVMLLAMNKVEGDNISGVCFVGLYDLDASRYFVLLPLCLCVFVGLSLLLAGIISLNHVRQVIQHDGRNQEKLKKFMIRIGVFSGLYLVPLVTLLGCYVYEQVNRITWEITWVSDHCRQYHIPCPYQAKAKARPELALFMIKYLMTLIVGISAVFWVGSKKTCTEWAGFFKRNCKRDPISESRRVLQESCEFFLKHNSKVKHKKKHYKPSSHKLKVISKSMGTSTGATANHGTSAVAITSHDYLGQETLTEIQTSPETSMREVKADGASTPRLREQDCGEPASPAASISRLSGEQVDGKGQAGSVSESARSEGRISPKSDITDTGLAQSNNLQVPSSSEPSSLKGSTSLLVHPVSGVRKEQGGGCHSDT |  | predominant intracellular localization of both constructs |  |  |  |  |  | does not assemble with Gαi1/Gαq proteins
